Patent US20240409629A1

Target: human CLDN18.1 (human) (UniProt P56856)
Experiment: FACS, U2OS-CLDN18.1 cells, antibody at 200 nM

B1: IgG1 isotype control antibody (antibody, V domains shown)
VH: EVQLEQSGAELMKPGASVKISCKATGYTFTTYWIEWIKQRPGHSLEWIGEILPGSDSTYYNEKVKGKVTFTADASSNTAYMQLSSLTSEDSAVYYCARGDGFYVYWGQGTTLTVSS
VL: DIELTQSPATLSVTPGDSVSLSCRASQSISNNLHWYQQKSHESPRLLIKYTSQSMSGIPSRFSGSGSGTDFTLSINSVETEDFGVYFCQQSGSWPRTFGGGTKLDIKR
MFI: 6040
